Where a chain is given by its changes, count along the chain named.
T1: human CD131 (human, UniProt P32927 17-897)
T1 sequence: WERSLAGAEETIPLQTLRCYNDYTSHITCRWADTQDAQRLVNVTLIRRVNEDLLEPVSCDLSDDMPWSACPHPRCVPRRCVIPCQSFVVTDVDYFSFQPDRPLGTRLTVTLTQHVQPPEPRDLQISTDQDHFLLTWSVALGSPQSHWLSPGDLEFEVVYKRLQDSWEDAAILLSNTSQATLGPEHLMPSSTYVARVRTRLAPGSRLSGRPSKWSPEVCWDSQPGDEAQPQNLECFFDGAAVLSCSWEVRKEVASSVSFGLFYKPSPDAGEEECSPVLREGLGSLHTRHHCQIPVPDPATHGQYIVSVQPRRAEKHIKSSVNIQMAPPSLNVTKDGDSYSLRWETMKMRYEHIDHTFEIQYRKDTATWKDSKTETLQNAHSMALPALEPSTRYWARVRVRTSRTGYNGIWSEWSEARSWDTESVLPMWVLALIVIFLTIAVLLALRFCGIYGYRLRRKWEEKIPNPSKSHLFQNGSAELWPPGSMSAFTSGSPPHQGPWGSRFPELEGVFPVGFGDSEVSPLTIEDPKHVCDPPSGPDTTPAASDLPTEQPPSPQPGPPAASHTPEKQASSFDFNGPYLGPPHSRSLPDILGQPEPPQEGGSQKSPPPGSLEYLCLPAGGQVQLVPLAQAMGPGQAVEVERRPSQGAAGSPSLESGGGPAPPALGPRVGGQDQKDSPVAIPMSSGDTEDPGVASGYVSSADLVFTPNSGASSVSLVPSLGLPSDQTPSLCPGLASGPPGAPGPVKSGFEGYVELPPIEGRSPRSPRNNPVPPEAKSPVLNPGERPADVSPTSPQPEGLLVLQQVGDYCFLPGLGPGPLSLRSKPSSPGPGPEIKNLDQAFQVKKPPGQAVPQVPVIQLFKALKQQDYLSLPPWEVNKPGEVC

B1: 9A2-VR39.22 (antibody, V domains shown)
VH: EVQLLESGGGLVQPGGSLRLSCAASGFTFQWYHVIWVRQAPGKGLEWVSSINGRGRVTYYADSVKGRFTISRDNSKNTLYLQMNSLRAEDTAVYYCARFYDSFFDIWGQGTMVTVSS
VL: DIQMTQSPSSVSASVGDRVTITCRASQGISSWLAWYQQKPGKAPKLLIYAASSLQSGVPSRFSGSGSGTDFTLTISSLQPEDFATYYCQQANSFPITFGQGTRLEIKR
B2: 9A2-VR24.24 (antibody, V domains shown)
VH: B1 VH with Q30P, H33R, I35H, N52R, G53T, R54D, R56T, V57W
VL: B1 VL
B3: 9A2-VR39.174 (antibody, V domains shown)
VH: B1 VH with Q30S, W31H, V34M, I35L, D62R, S63D, V64H, G66K
VL: B1 VL
B4: 9A2-VR39.177 (antibody, V domains shown)
VH: B1 VH with Q30S, W31H, V34M, I35L, D62L, S63E, V64Y, G66K
VL: B1 VL
B5: 9A2-VR39.148 (antibody, V domains shown)
VH: B1 VH with Q30S, W31H, V34M, I35L, Y59H, Y60V, D62Q, S63E
VL: B1 VL
B6: 9A2-VR39.116 (antibody, V domains shown)
VH: B1 VH with Q30P, Y32F, H33V, V34M, I35V
VL: B1 VL
B7: 9A2-VR39.112 (antibody, V domains shown)
VH: B1 VH with Q30P, W31Y, V34Q, I35V
VL: B1 VL
B8: 9A2-VR39.27 (antibody, V domains shown)
VH: B1 VH with G26R, F27T, T28S, Q30M, V34M, I35L
VL: B1 VL
B9: 9A2-VR24.87 (antibody, V domains shown)
VH: B1 VH with Q30P, H33R, I35H, N52H, G53T, R54H, G55S, R56D, V57W
VL: B1 VL
B10: 9A2-VR39.28 (antibody, V domains shown)
VH: B1 VH with G26R, F27G, T28A, F29P, Q30M, V34M, I35L
VL: B1 VL
B11: 9A2-VR39.111 (antibody, V domains shown)
VH: B1 VH with Q30P, Y32F, V34F, I35V
VL: B1 VL
B12: 9A2-VR24.04 (antibody, V domains shown)
VH: B1 VH with Q30P, H33R, I35H, N52H, G53T, R54H, G55R, R56H, V57I
VL: B1 VL
B13: 9A2-VR39.139 (antibody, V domains shown)
VH: B1 VH with G26P, F27R, T28W, F29E, Q30W, W31N, V34M, I35L
VL: B1 VL
B14: 9A2-VR39.109 (antibody, V domains shown)
VH: B1 VH with Q30M, V34H
VL: B1 VL
B15: 9A2-VR24.78 (antibody, V domains shown)
VH: B1 VH with Q30P, H33R, I35H, N52H, G53T, R54H, G55R, R56N, V57Y
VL: B1 VL
B16: 9A2-VR39.24 (antibody, V domains shown)
VH: B1 VH with Q30H, W31H, Y32F
VL: B1 VL
B17: 9A2-VR24.93 (antibody, V domains shown)
VH: B1 VH with Q30P, H33R, I35H, N52R, G53N, R54E, G55N, R56G, V57W
VL: B1 VL
B18: 9A2-VR39.140 (antibody, V domains shown)
VH: B1 VH with G26A, F27Y, T28S, F29E, Q30M, V34M, I35L
VL: B1 VL
B19: 9A2-VR39.110 (antibody, V domains shown)
VH: B1 VH with Q30V, V34H
VL: B1 VL
B20: 9A2-VR39.105 (antibody, V domains shown)
VH: B1 VH with Q30P, W31Y, V34M
VL: B1 VL
B21: 9A2-VR24.19 (antibody, V domains shown)
VH: B1 VH with Q30P, H33R, I35H, N52H, G53T, R54Q, G55S, R56K, V57W
VL: B1 VL
B22: 9A2-VR24.82 (antibody, V domains shown)
VH: B1 VH with Q30P, H33R, I35H, N52K, G53H, R54G, V57Y
VL: B1 VL
B23: 9A2-VR24.81 (antibody, V domains shown)
VH: B1 VH with Q30P, H33R, I35H, N52H, G53T, R54H, G55R, R56N, V57Y
VL: B1 VL
B24: 9A2-VR39.102 (antibody, V domains shown)
VH: B1 VH with Y32F, V34Y
VL: B1 VL
B25: 9A2-VR39.46 (antibody, V domains shown)
VH: B1 VH with G26D, F27V, T28D, Q30G, V34M, I35L
VL: B1 VL
B26: 9A2-VR24.10 (antibody, V domains shown)
VH: B1 VH with Q30P, H33R, I35H, N52H, G53T, R54G, G55S, R56Q, V57W
VL: B1 VL
B27: 9A2-VR39.77 (antibody, V domains shown)
VH: B1 VH with Q30S, W31H, V34M, I35L, A61Q, D62W, S63P, V64M, K65N, G66K
VL: B1 VL
B28: 9A2-VR39.97 (antibody, V domains shown)
VH: B1 VH with Q30P, Y32F, V34F, I35V
VL: B1 VL
B29: 9A2-VR39.23 (antibody, V domains shown)
VH: B1 VH with Q30H, W31H, V34T, I35V
VL: B1 VL
B30: 9A2-VR39.93 (antibody, V domains shown)
VH: B1 VH with Q30S, W31H, V34M, I35L, A61N, D62P, S63A, V64W, G66K
VL: B1 VL
B31: 9A2-VR24.07 (antibody, V domains shown)
VH: B1 VH with Q30P, H33R, I35H, N52H, G53T, R54H, G55R, R56N, V57S
VL: B1 VL
B32: 9A2-VR39.162 (antibody, V domains shown)
VH: B1 VH with Q30S, W31H, V34M, I35L, T58P, Y59Q, Y60M, D62Q, S63E
VL: B1 VL
B33: 9A2-VR24.76 (antibody, V domains shown)
VH: B1 VH with Q30P, H33R, I35H, N52Q, G53T, R54H, R56V, V57W
VL: B1 VL
B34: 9A2-VR39.103 (antibody, V domains shown)
VH: B1 VH with W31H, Y32F, V34W, I35V
VL: B1 VL
B35: 9A2-VR39.98 (antibody, V domains shown)
VH: B1 VH with Q30E, W31H, V34T
VL: B1 VL
B36: 9A2-VR24.84 (antibody, V domains shown)
VH: B1 VH with Q30P, H33R, I35H, N52H, G53T, R54H, G55R, R56P, V57W
VL: B1 VL
B37: 9A2-VR24.91 (antibody, V domains shown)
VH: B1 VH with Q30P, H33R, I35H, N52H, G53T, R54H, G55R, R56Q
VL: B1 VL
B38: 9A2-VR24.12 (antibody, V domains shown)
VH: B1 VH with Q30P, H33R, I35H, N52H, G53T, R54H, G55Y, R56Q, V57Y
VL: B1 VL
B39: 9A2-VR39.122 (antibody, V domains shown)
VH: B1 VH with G26A, F27G, T28F, Q30E, W31Y, V34M, I35L
VL: B1 VL

What follows are binders tested against T1, human CD131 (assay: cell-based or functional assay).

IC50 GM-CSF, TF-1 proliferation [nM] | Binder
0.5 | B1
1.09 | B2
0.64 | B3
0.52 | B4
1.12 | B5
7.93 | B6
1 | B7
17.9 | B8
2.37 | B9
57.2 | B10
0.99 | B11
0.7 | B12
21.5 | B13
0.24 | B14
0.65 | B15
0.42 | B16
0.92 | B17
42.5 | B18
0.28 | B19
0.53 | B20

IC50 GM-CSF, TF-1 proliferation [nM] | Binder
0.98 | B21
3.99 | B22
0.48 | B23
2.29 | B24
3.34 | B25
9.52 | B26
2.03 | B27
0.92 | B28
0.9 | B29
0.28 | B30
1.17 | B31
3.6 | B32
12.4 | B33
5.14 | B34
1.44 | B35
0.21 | B36
0.5 | B37
0.93 | B38
15 | B39

Reference: US20190062438A1 (CSL, published 2019)
